Legend:
Conditions in all cases: tags: American Diagnostica 4500PC/4900PC, E. coli expressed
[1] = biological target: T1, TFPI (tissue factor pathway inhibitor, full-length) (Homo sapiens, UniProt P10646 SEQ:1-276); assay: competition; fails binding-competition criterion; FXa yes
Procedure: (§1) Each molecule was evaluated for binding to tissue factor pathway inhibitor (TFPI) in a binding-competition assay. For these experiments, 10 nM human TFPI (American Diagnostica, Stamford, Conn., catalog #4500PC) was incubated with trace amounts of radiolabeled ARC17480 and 5000 nM, 1666.67 nM, 555.56 nM, 185.19 nM, 61.73 nM, 20.58 nM, 6.86 nM, 2.29 nM, 0.76 nM or 0.25 nM of unlabeled competitor aptamer. ARC17480 was included as a competitor in every experiment as a control. For each molecule, the percentage of radiolabeled ARC17480 bound at each competitor aptamer concentration was used for analysis. The percentage of radiolabeled ARC17480 bound was plotted as a function of aptamer concentration and fit to the equation y=(max/(1+x/IC₅₀))+int, where y=the percentage of radiolabeled ARC17480 bound, x=the concentration of aptamer, max=the maximum radiolabeled ARC17480 bound, and int=the y-intercept, to generate an IC₅₀ value for binding-competition. The IC₅₀ of each aptamer was compared to the IC₅₀ of ARC17480 that was evaluated in the same experiment. A substitution was considered tolerated in the binding-competition assay if the IC₅₀ of that molecule was not more than 5-fold greater than that of ARC17480 evaluated in the same experiment. Tolerated substitutions are indicated in Table 38 as meeting the assay criteria (“yes”) or not meeting the assay criteria (“no”).

[2] = biological target: T1, TFPI (tissue factor pathway inhibitor, …); assay: competition; meets binding-competition criterion; CAT no
Procedure: as §1

[3] = biological target: T1, TFPI (tissue factor pathway inhibitor, …); assay: competition; fails binding-competition criterion; CAT yes
Procedure: (§2) The substituted ARC17480 molecules were assayed for binding and function. The assays used for this evaluation were the calibrated automated thrombogram (CAT) assay, a dot-blot binding-competition assay and a FXa activity assay. The results of these assays are summarized in Table 40 and depicted in FIG. 147. A mutation was considered tolerated for activity if it met the criteria of at least two of the three assays that were carried out. Mutations that are tolerated (“yes”) and not tolerated (“no”) are identified in Table 40. The experimental details and the criteria used for each assay are described in the following paragraphs. The molecules described in this example were first tested in the CAT assay and the dot-blot binding-competition assay. In most cases, molecules were only tested in the FXa assay if there was a discrepancy between the results in the CAT assay and the dot-blot binding-competition assay.
(§3) Each molecule was evaluated for binding to tissue factor pathway inhibitor (TFPI) in a binding-competition assay. […] The IC₅₀ of each aptamer was compared to the IC₅₀ of ARC17480 that was evaluated in the same experiment. A mutation was considered tolerated in the binding-competition assay if the IC₅₀ of that molecule was not more than 5-fold greater than that of ARC17480 evaluated in the same experiment. […]

[4] = biological target: T1, TFPI (tissue factor pathway inhibitor, …); assay: competition; meets binding-competition criterion; CAT no; remark: listed apart in the source
Procedure: as §2, §3

[5] = biological target: T1, TFPI (tissue factor pathway inhibitor, …); assay: competition; dot-blot; FXa assay criterion not met
Procedure: (§4) Each molecule was evaluated for binding to tissue factor pathway inhibitor (TFPI) in a binding-competition assay. For these experiments, 10 nM human TFPI (American Diagnostica, Stamford, Conn., catalog #4500PC) was incubated with trace amounts of radiolabeled ARC17480 and 5000 nM, 1666.67 nM, 555.56 nM, 185.19 nM, 61.73 nM, 20.58 nM, 6.86 nM, 2.29 nM, 0.76 nM or 0.25 nM of unlabeled competitor aptamer. ARC17480 was included as a competitor in every experiment as a control. For each molecule, the percentage of radiolabeled ARC17480 bound at each competitor aptamer concentration was used for analysis. The percentage of radiolabeled ARC17480 bound was plotted as a function of aptamer concentration and fit to the equation y=(max/(1+x/IC₅₀))+int, where y=the percentage of radiolabeled ARC17480 bound, x=the concentration of aptamer, max=the maximum radiolabeled ARC17480 bound, and int=the y-intercept, to generate an IC₅₀ value for binding-competition. The IC₅₀ of each aptamer was compared to the IC₅₀ of ARC17480 that was evaluated in the same experiment. A substitution was considered tolerated in the binding-competition assay if the IC₅₀ of that molecule was not more than 5-fold greater than that of ARC17480 evaluated in the same experiment. Tolerated substitutions are indicated in Table 37 as meeting the assay criteria (“yes”) or not meeting the assay criteria (“no”).

[6] = biological target: T1, TFPI (tissue factor pathway inhibitor, …); assay: competition; dot-blot
Procedure: as §2
(§5) Each molecule was evaluated for binding to tissue factor pathway inhibitor (TFPI) in a binding-competition assay. For these experiments, 10 nM human TFPI (American Diagnostica, Stamford, Conn., catalog #4900PC) was incubated with trace amounts of radiolabeled ARC17480 and 5000 nM, 1666.67 nM, 555.56 nM, 185.19 nM, 61.73 nM, 20.58 nM, 6.86 nM, 2.29 nM, 0.76 nM or 0.25 nM of unlabeled competitor aptamer. ARC17480 was included as a competitor in every experiment as a control. For each molecule, the percentage of radiolabeled ARC17480 bound at each competitor aptamer concentration was used for analysis. The percentage of radiolabeled ARC17480 bound was plotted as a function of aptamer concentration and fit to the equation y=(max/(1+x/IC₅₀))+int, where y=the percentage of radiolabeled ARC17480 bound, x=the concentration of aptamer, max=the maximum radiolabeled ARC17480 bound, and int=the y-intercept, to generate an IC₅₀ value for binding-competition. The IC₅₀ of each aptamer was compared to the IC₅₀ of ARC17480 that was evaluated in the same experiment. A mutation was considered tolerated in the binding-competition assay if the IC₅₀ of that molecule was not more than 5-fold greater than that of ARC17480 evaluated in the same experiment. Tolerated mutations are indicated in Table 40 as meeting the assay criteria (“yes”) or not meeting the assay criteria (“no”).

[7] = biological target: T1, TFPI (tissue factor pathway inhibitor, …); assay: competition; competition with 20 nM ARC19499, plate assay
Procedure: In order to assess the affinity of ARC19498 towards TFPI protein, an ARC19499:TFPI binding competition assay was set up. Recombinant human TFPI protein (0.5 mg/mL) was diluted in DPBS to a final concentration of 15 μg/mL, and 100 μL was added to a 96-well Maxisorb plate and incubated overnight at 4° C. The TFPI solution was then removed and the plate was subsequently washed 3 times with 200 μL wash buffer (DPBS+0.05% Tween 20) at room temperature. The plate was then blocked with 200 μL of 10 mg/mL BSA in DPBS for 30 minutes at room temperature. The BSA blocking solution was then removed and the plate was washed again 3 times with 200 μL wash buffer. ARC19498 was serially diluted and mixed at different concentrations with 20 nM ARC19499 in DPBS in 0.1% BSA. The ARC19498:ARC19499 mixtures were added to the plate and incubated for 3 hours at room temperature. After washing 3 times with 200 μL wash buffer, 100 μL of 0.5 μg/mL rabbit monoclonal anti-PEG antibody (Epitomics) was added to the plate and incubated for 60 minutes at room temperature. The anti-PEG antibody solution was then removed and the plate was washed as described above. […] The assay plate was then read at 450 nm using a Victor³V 1420 multilabel counter (Perkin Elmer). […] The IC₅₀ was calculated based on 4-parameter logistics using Graphpad Prism 4 software.

[8] = biological target: T1, TFPI (tissue factor pathway inhibitor, …); assay: competition; dot-blot; CAT and FXa criteria not met
Procedure: as §4

[9] = biological target: T1, TFPI (tissue factor pathway inhibitor, …); assay: competition; dot-blot; CAT criterion not met
Procedure: as §2, §5

[10] = biological target: T1, TFPI (tissue factor pathway inhibitor, …); assay: competition; meets binding-competition criterion; CAT and FXa no
Procedure: as §2
Each molecule was evaluated for binding to tissue factor pathway inhibitor (TFPI) in a binding-competition assay. For these experiments, 10 nM human TFPI (American Diagnostica, Stamford, Conn., catalog #4900PC) was incubated with trace amounts of radiolabeled ARC17480 and 5000 nM, 1666.67 nM, 555.56 nM, 185.19 nM, 61.73 nM, 20.58 nM, 6.86 nM, 2.29 nM, 0.76 nM or 0.25 nM of unlabeled competitor aptamer. ARC17480 was included as a competitor in every experiment as a control. For each molecule, the percentage of radiolabeled ARC17480 bound at each competitor aptamer concentration was used for analysis. […] The IC₅₀ of each aptamer was compared to the IC₅₀ of ARC17480 that was evaluated in the same experiment. A mutation was considered tolerated in the binding-competition assay if the IC₅₀ of that molecule was not more than 5-fold greater than that of ARC17480 evaluated in the same experiment. […]

[11] = biological target: T1, TFPI (tissue factor pathway inhibitor, …); assay: competition; negative control, no competition with ARC17480 in dot blot

T1 sequence (P10646 29-304): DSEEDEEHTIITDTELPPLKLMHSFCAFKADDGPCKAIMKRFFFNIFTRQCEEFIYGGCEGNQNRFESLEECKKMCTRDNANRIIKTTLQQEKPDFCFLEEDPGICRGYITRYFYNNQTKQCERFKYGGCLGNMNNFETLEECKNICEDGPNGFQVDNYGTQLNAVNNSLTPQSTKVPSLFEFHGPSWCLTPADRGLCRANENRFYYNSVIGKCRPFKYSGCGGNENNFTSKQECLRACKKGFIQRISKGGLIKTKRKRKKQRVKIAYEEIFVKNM

With GGAAUAUACUUGGCUCGUAGGUGCGUAUAUA (mixed, 2'-OMe A/G/U, 2'-deoxy C, 3' idT) [ARC33132] the binding signal [1] was > 5 fold IC50 of ARC17480.

In the case of GGAAUUACUUGGCUCGUUAGGUGCGUAUAUA (mixed, 2'-OMe A/G/U, 2'-deoxy C, 3' idT) [ARC33122], the binding signal [2] is reported as ≤ 5 fold IC50 of ARC17480.

GGAAUAUACUUGGCUCGUUAGGUGCGUAAUA (mixed, 2'-OMe A/G/U, 2'-deoxy C, 3' idT) [ARC33141] was tested, and the binding signal [2] was ≤ 5 fold IC50 of ARC17480.

GGAAUAUACUUGGCUCGUUAUGUGCGUAUAUA (mixed, 2'-OMe A/G/U, 2'-deoxy C, 3' idT) [ARC33169] was tested, and the binding signal [3] was > 5 fold IC50 of ARC17480.

GGAAUUUACUUGGCUCGUUAGGUGCGUAUAUA (mixed, 2'-OMe A/G/U, 2'-deoxy C, 3' idT) [ARC33154] was tested, and the binding signal [4] was ≤ 5 fold IC50 of ARC17480.

For GGAAUAUACUUGGCUCGUUAGGUGCGUAUAUA (XNA, 2'-OMe except dC9, dC14, dC25; 2'-OMe C16; 3' idT) [ARC18540], the binding signal [5] was ≤ 5 fold IC50 vs ARC17480.

For GGAGUAUACUUGGCUCGUUAGGUGCGUAUAUA (XNA, 2'-OMe except dC9, dC14, dC16, dC25; 3' idT) [ARC34862], the binding signal [6] was ≤ 5 fold IC50 vs ARC17480.

In the case of GGAAUAUACUUGGCUCGUUAGGUGCGUAUAUA (XNA, 2'-OMe except dC9, dC14, dC16; 2'-OMe C25; 3' idT) [ARC18541], the binding signal [5] is reported as ≤ 5 fold IC50 vs ARC17480.

In the case of GGAAUAUACUUGGCUCGUUAGGUGCGUAUAUA (mixed, 5'-hexylamine, 2'-OMe A/G/U, 2'-deoxy C, 3' idT) [ARC19498], the IC50 [7] is reported as 20 nM.

GGAAUAUACTUGGCUCGUUAGGUGCGUAUAUA (XNA, 2'-OMe except dC9, dC14, dC16, dC25 and dT10; 3' idT) [ARC19456] was tested, and the binding signal [8] was ≤ 5 fold IC50 vs ARC17480.

With GGACUAUACUUGGCUCGUUAGGUGCGUAUAUA (XNA, 2'-OMe except dC9, dC14, dC16, dC25; 3' idT) [ARC34863] the binding signal [6] was ≤ 5 fold IC50 vs ARC17480.

In the case of GGAAUAUGCUUGGCUCGUUAGGUGCGUAUAUA (XNA, 2'-OMe except dC9, dC14, dC16, dC25; 3' idT) [ARC34870], the binding signal [9] is reported as ≤ 5 fold IC50 vs ARC17480.

In the case of GGAAUACACUUGGCUCGUUAGGUGCGUAUAUA (mixed, 2'-OMe A/G/U and mC7, other C 2'-deoxy, 3' idT) [ARC33155], the binding signal [10] is reported as ≤ 5 fold IC50 of ARC17480.

GGAAUAUACUUGGCUGCUUAGGUGCGUAUAUA (mixed, 2'-OMe A/G/U, 2'-deoxy C, 3' idT) [ARC32603]: no binding [11].

For GGAAUCUACUUGGCUCGUUAGGUGCGUAUAUA (XNA, 2'-OMe except dC9, dC14, dC16, dC25; 3' idT) [ARC34867], the binding signal [9] was ≤ 5 fold IC50 vs ARC17480.

In the case of GGAAUAUACUUGGTUCGUUAGGUGCGUAUAUA (mixed, 2'-OMe A/G/U, dT14, 2'-deoxy C, 3' idT) [ARC33162], the binding signal [10] is reported as ≤ 5 fold IC50 of ARC17480.

For GGAAUAUACUUGGCUCGUUAGGUGCGUACAUA (mixed, 2'-OMe A/G/U and mC29, other C 2'-deoxy, 3' idT) [ARC33177], the binding signal [4] was ≤ 5 fold IC50 of ARC17480.

For GGAAUAUACUUGGCUCGTUAGGUGCGUAUAUA (XNA, 2'-OMe except dC9, dC14, dC16, dC25 and dT18; 3' idT) [ARC19462], the binding signal [8] was ≤ 5 fold IC50 vs ARC17480.

GGAAUAUACUUGGCUCGUUAGGUGCGUAUAUA (XNA, 2'-OMe except dC9, dC25; 2'-OMe C14 and C16; 3' idT) [ARC18545] was tested, and the binding signal [5] was ≤ 5 fold IC50 vs ARC17480.

With GGAAUAUCCUUGGCUCGUUAGGUGCGUAUAUA (XNA, 2'-OMe except dC9, dC14, dC16, dC25; 3' idT) [ARC34871] the binding signal [9] was > 5 fold IC50 vs ARC17480.

For GGAAGAUACUUGGCUCGUUAGGUGCGUAUAUA (XNA, 2'-OMe except dC9, dC14, dC16, dC25; 3' idT) [ARC34865], the binding signal [6] was ≤ 5 fold IC50 vs ARC17480.

In the case of GGAAUGUACUUGGCUCGUUAGGUGCGUAUAUA (XNA, 2'-OMe except dC9, dC14, dC16, dC25; 3' idT) [ARC34866], the binding signal [6] is reported as ≤ 5 fold IC50 vs ARC17480.

With GGAAAAUACUUGGCUCGUUAGGUGCGUAUAUA (XNA, 2'-OMe except dC9, dC14, dC16, dC25; 3' idT) [ARC34864] the binding signal [9] was ≤ 5 fold IC50 vs ARC17480.

With GGAAUAUUCUUGGCUCGUUAGGUGCGUAUAUA (mixed, 2'-OMe A/G/U, 2'-deoxy C, 3' idT) [ARC33156] the binding signal [10] was ≤ 5 fold IC50 of ARC17480.
